From paper PMC8083607 (2021) come the findings set out here.

Where a chain is given by its changes, count along the chain named.

First the molecules themselves.
B1: FC11 (antibody, V domains shown)
VH: EVQLLESGGGVVQPGRSLRLSCAASGFTFSYYGMHWVRQAPGTGLEWVAVISYDGSNEYYADSVKGRFTISRDNSKNTLYLQMNSLRAEDTAVYYCAKAMFLGDSSGLTGLDMDVWGQGTTVTVSS
VL: DIELTQSPGTLSLSPGERATLSCRASQSVSSYLAWYQQKPGQAPRLLIYDASNRATGIPARFSGSGSGTDFTLTISSLEPEDFALYYCQQRGNWPPTFGGGTKLEIK
B2: FC01 (antibody, V domains shown)
VH: EVQLLESGTEVKKPGSSVKVSCKASGGTFSSYAISWVRQAPGQGLEWMGGIIPILGIANYAQKFQGRVTITADKSTSTAYMELSSLRSEDTAVYYCARERGYSGYGAAYYFDYWGQGTLVTVSS
VL: QSVLTQAPSVSGAPGQSVTISCTGSSSNIGAGYDVHWYQQLPGTAPKLLIYGNNNRPSGVPDRFSGSKSGTSASLAITGLQAEDEADYYCQSYDSSLSKGVFGGGTKLTVL
B3: FC08 (antibody, V domains shown)
VH: QLLQQSGAEVKKPGSSVKVSCKASGGTFSSYAISWVRQAPGQGLEWMGGIIPIIGIANYAQKFQGRVTITADKSTSTAYMELSSLRSEDTAVYYCARERGYSGYGAAYYFDYWGQGTLVTVSS
VL: SVLTQPPSVSGAPGQRVTISCTGSSSNIGAGYDVHWYQQLPGTAPKLLIYGNSNRPSGVPDRFSGSKSGTSASLAITGLQAEDEADYYCQSYDSSLSGSVFGGGTKLTVL
B4: FC06 (antibody, V domains shown)
VH: EVQLLESGGGVVQPGRSLRLSCAASGFTFSSYAMHWVRQAPGEGLEWVAVISYDGSNKYYADSVKGRFTISRDNSKNTLYLQMNSLRAGDTAVYYCARLNYYGSGFYYRLGDDYWGQGTLVTVSS
VL: DIELTQSPSSLSASEGDRVTITCRASQGIRNDLGWYQQKPGKAPKRLIYGAPSLQSGVPSRFSGSGSGTEFTLTISTLQPEDSATYYCLQHNKYPWTFGQGTKVEIK
B5: FC05 (antibody, V domains shown)
VH: VQLLEQSGAEVKKPGASVRVSCKVSGYTLPEVAMHWVRQAPGKGLEWMGGFDPEDGETMYAQKFQGRVTMTEDTSTDTAYMELSSLRSEDTAVYYCATTTPFSSSYWFDPWGQGTLVTVSS
VL: QSVLTQAPSVSGAPGQKVTISCSGSSSNIGNNYVSWYQQLPGTAPKLLIYDNNKRPSGIPDRFSGSKSGTSATLGITGLQTGDEADYYCGTWDSSLSAVVFGGGTKLTVL
B6: FC07 (antibody, V domains shown)
VH: EVQLLESGGGLVQPGGSLRLSCAASGFTFGSYAMSWVRQAPGKGLEWVSSISGSGGSTYYADSAKGRFTISRDNSKNTLYLQMNSLRAEDTAVYYCAKSPNYDILTGYYNWAGYYFDYWGQGTLVTVSS
VL: DIELTQSPGTLSLSPGDRATLSCRASRGVSSNSLAWYRQRPGESPRLVISGASTRATGIPERFSGSGSGTDFSLSISRLQPEDFAVYYCQQYGSFPFTFGPGTTVDV
B7: FC120 (antibody, V domains shown)
VH: EVQLLESGAEVKKPGASVKVSCKASGYTFTSYYMHWVRQAPGQGLEWMGIINPSGGSTSYAQKFQGRVTMTRDTSTSTVYMELSSLRSEDTAVYYCARGGGHALDIWGQGTMVTVSS
VL: B5 VL with A7P, V99W
B8: FC118 (antibody, V domains shown)
VH: EVQLLESGGGVVQPGRSLRLSCAASGFTFSSYAMHWVRQAPGKGLEWVAVISYDGSNKYYADSVKGRFTISRDNSKNTLYLQMNSLRAEDTAVYYCARARGGSYLYGMDVWGQGAMVTVSS
VL: DIELTQSPSSLAASVGDTVTITCRASQTIGKYLTWYQKKPGRAPDLLIYAASRLQSGVPSRFSGRASGTEFTLTISSLQPEDFATYFCQHTYRTLSFGPGTKVDLK
B9: FC122 (antibody, V domains shown)
VH: B8 VH with V50L, S56I, K65N, N77Y, R100H, G101R, L105Y, A115T
VL: DIELTQSPSSLSASVGDSVTITCRGSQIISRYLNWYQQKPGKAPKLLIYAASTLQSGVPSRFSGSGSGTEFTLSISSLEPEDFATYYCQQSYAIPYTFGQGTRLEI
B10: FC124 (antibody, V domains shown)
VH: B8 VH with V50L, S56I, K65N, N77Y, R100H, G101R, L105Y, A115T
VL: DIELTQSPGTLSLSPGERATLYCRASQSVSSSYLAWYQQKPGQAPRLLIYGAFGRAAGIPDRFRGSGSGTQFTLTISRLEPEDSAVYFCQQYGQSPLYSFGQGTKLEIK

The first assay deals with SARS-CoV-2 RBD (recombinant, limits not stated) (SARS-CoV-2, UniProt P0DTC2 333-526). Briefly: SPR.
What is called Kd is the concentration at which binding is half-saturated. Take B1: the Kd came out at 5.24 nM.

Turning to B2, the Kd stood at 0.628 nM.

B3: the Kd amounted to 0.298 nM.

The next assay has as its target SARS-CoV-2 NTD (recombinant, limits not stated) (SARS-CoV-2). Briefly: SPR. Background: SPR reads the build-up and loss of mass on a sensor chip optically.
B4: the Kd came out at 7.49 nM.

Turning to B5, the Kd came out at 4.32 nM.

With B6, the Kd came out at 63.4 nM.

The next assay has as its target SARS-CoV-2 S2 (recombinant) (SARS-CoV-2). Nature of the assay: SPR.
B7: the Kd worked out at 21.8 nM.

As to B8, the Kd was 41.1 nM.

Take B9: the equilibrium dissociation constant (Kd) was found to be 9.44 nM.

On to B10, for which the dissociation constant (Kd) came out at 38.6 nM.
